# B1: Astrotactin-1 (Homo sapiens), O14525-2 (parent)
# chain: MALAGLCALLACCWGPAAVLATAAGDVDPSKELECKLKSITVSALPFLRENDLSIMHSPSASEPKLLFSVRNDFPGEMVVVDDLENTELPYFVLEISGNTEDIPLVRWRQQWLENGTLLFHIHHQDGAPSLPGQDPTEEPQHESAEEELRILHISVMGGMIALLLSILCLVMILYTRRRWCKRRRVPQPQKSASAEAANEIHYIPSVLIGGHGRESLRNARVQGHNSSGTLSIRETPILDGYEYDITDLRHHLQRECMNGGEDFASQVTRTLDSLQGCNEKSGMDLTPGSDNAKLSLMNKYKDNIIATSPVDSNHQQATLLSHTSSSQRKRINNKARAGSAFLNPEGDSGTEAENDPQLTFYTDPSRSRRRSRVGSPRSPVNKTTLTLISITSCVIGLVCSSHVNCPLVVKITLHVPEHLIADGSRFILLEGSQLDASDWLNPAQVVLFSQQNSSGPWAMDLCARRLLDPCEHQCDPETGECLCYEGYMKDPVHKHLCIRNEWGTNQGPWPYTIFQRGFDLVLGEQPSDKIFRFTYTLGEGMWLPLSKSFVIPPAELAINPSAKCKTDMTVMEDAVEVREELMTSSSFDSLEVLLDSFGPVRDCSKDNGGCSKNFRCISDRKLDSTGCVCPSGLSPMKDSSGCYDRHIGVDCSDGFNGGCEQLCLQQMAPFPDDPTLYNILMFCGCIEDYKLGVDGRSCQLITETCPEGSDCGESRELPMNQTLFGEMFFGYNNHSKEVAAGQVLKGTFRQNNFARGLDQQLPDGLVVATVPLENQCLEEISEPTPDPDFLTGMVNFSEVSGYPVLQHWKVRSVMYHIKLNQVAISQALSNALHSLDGATSRADFVALLDQFGNHYIQEAIYGFEESCSIWYPNKQVQRRLWLEYEDISKGNSPSDESEERERDPKVLTFPEYITSLSDSGTKHMAAGVRMECHSKGRCPSSCPLCHVTSSPDTPAEPVLLEVTKAAPIYELVTNNQTQRLLQEATMSSLWCSGTGDVIEDWCRCDSTAFGADGLPTCAPLPQPVLRLSTVHEPSSTLVVLEWEHSEPPIGVQIVDYLLRQEKVTDRMDHSKVETETVLSFVDDIISGAKSPCAMPSQVPDKQLTTISLIIRCLEPDTIYMFTLWGVDNTGRRSRPSDVIVKTPCPVVDDVKAQEIADKIYNLFNGYTSGKEQQTAYNTLLDLGSPTLHRVLYHYNQHYESFGEFTWRCEDELGPRKAGLILSQLGDLSSWCNGLLQEPKISLRRSSLKYLGCRYSEIKPYGLDWAELSRDLRKTCEEQTLSIPYNDYGDSKEI
# B2: Nuclear factor erythroid 2-related factor 2 (Mus musculus), Q60795 (parent)
# chain: MMDLELPPPGLQSQQDMDLIDILWRQDIDLGVSREVFDFSQRQKDYELEKQKKLEKERQEQLQKEQEKAFFAQFQLDEETGEFLPIQPAQHIQTDTSGSASYSQVAHIPKQDALYFEDCMQLLAETFPFVDDHESLALDIPSHAESSVFTAPHQAQSLNSSLEAAMTDLSSIEQDMEQVWQELFSIPELQCLNTENKQLADTTAVPSPEATLTEMDSNYHFYSSISSLEKEVGNCGPHFLHGFEDSFSSILSTDDASQLTSLDSNPTLNTDFGDEFYSAFIAEPSDGGSMPSSAAISQSLSELLDGTIEGCDLSLCKAFNPKHAEGTMEFNDSDSGISLNTSPSRASPEHSVESSIYGDPPPGFSDSEMEELDSAPGSVKQNGPKAQPAHSPGDTVQPLSPAQGHSAPMRESQCENTTKKEVPVSPGHQKAPFTKDKHSSRLEAHLTRDELRAKALHIPFPVEKIINLPVDDFNEMMSKEQFNEAQLALIRDIRRRGKNKVAAQNCRKRKLENIVELEQDLGHLKDEREKLLREKGENDRNLHLLKRRLSTLYLEVFSMLRDEDGKPYSPSEYSLQQTRDGNVFLVPKSKKPDTKKN
# B3: Astrotactin-1 (Mus musculus), Q61137-2 (parent)
# chain: MALAGLCALFACCWGPAAVLATAAGDVDPSKELECKLKSITVSALPFLRENDLSIMHSPSASEPKLLFSVRNDFPGEMVVVDDLENTELPYFVLEISGNTEDIPLVRWRQQWLENGTLLFHIHHQDGAPSLPGQDPTEEPQHESAEEELRILHISVMGGMIALLLSILCLVMILYTRRRWCKRRRVPQPQKSASAEAANEIHYIPSVLIGGHGRESLRNARVQGHNSSGTLSIRETPILDGYEYDITDLRHHLQRECMNGGEDFASQVTRTLDSLQGCNEKSGMDLTPGSDNAKLSLMNKYKDNIIATSPVDSNHQQATLLSHTSSSQRKRINNKARAGSAFLNPEGDSSTEAENDPQLTFYTDPSRSRRRSRVGSPRSPVNKTTLTLISVTSCVIGLVCSSHVSCPLVVKITLHVPEHLIADGSRFILLEGSQLDASDWLNPAQVVLFSQQNSSGPWAMDLCARRLLDPCEHQCDPETGECLCYEGYMKDPVHKHLCIRNEWGTNQGPWPYTIFQRGFDLVLGEQPSDKIFRFTYTLGEGMWLPLSKSFVIPPAELAINPSAKCKTDMTVMEDAVEVREELMTSSSFDSLEVLLDSFGPVRDCSKDNGGCSKNFRCISDRKLDSTGCVCPSGLSPMKDSSGCYDRHIGVDCSDGFNGGCEQLCLQQMAPFPEDPTLYNILMFCGCIEDYKLGVDGRSCQLVTETCPEGGDCGESREVPMNQTLFGEMFFGYNNQSKEVATGQVLKGTFRQNNFARGLDQQLPDGLVVASVPLENQCLEEISEPTPDPDFLTGMVNFSEVSGYPVLQHWKVRSVMYHIKLNQAAISQAFSNALHSLDGATSRADFVALLDQFGNHYIQEAVYGFEESCSIWYPNKQVQRRLWLEYEDISKGNSPSDESEERERDPKVLTFPEYIASLSDSGTKRMAAGVRMECQSKGRCPSSCPLCHVTSSPETPAEPVLLEVTRASPIYELVTNNQTQRLLQEATMSSLWCSGTGDVIEDWCRCDSTAFGADGLPTCAPLPQPVLRLSTVHEPSSNLVVLEWEHSEPPIGVQIVDYLIRQEKVTDRMDHSKVETETVLSFVDDIISGAKAPCAMPSQVPDKQLTTISLIIRCLEPDTIYMFTLWGVDNTGRRSRPSDVIVKTPCPVVDDVKAQEIADKIYNLFNGYTSGKEQQTAYNTLLDLGSPTLHRVLYHYNQHYESFGEFTWRCEDELGPRKAGLILSQLGDLSSWCNGLLQEPKISLRRGSLKYLGCRYSEIKPYGLDWSELSRDLRKTCEEQTLSVPYNDYGDSKDI
# Variants of: B1
# Conditions: with keap1_human KEAP1, Q14145
# Chain of keap1_human KEAP1, Q14145 (Q14145 whole entry): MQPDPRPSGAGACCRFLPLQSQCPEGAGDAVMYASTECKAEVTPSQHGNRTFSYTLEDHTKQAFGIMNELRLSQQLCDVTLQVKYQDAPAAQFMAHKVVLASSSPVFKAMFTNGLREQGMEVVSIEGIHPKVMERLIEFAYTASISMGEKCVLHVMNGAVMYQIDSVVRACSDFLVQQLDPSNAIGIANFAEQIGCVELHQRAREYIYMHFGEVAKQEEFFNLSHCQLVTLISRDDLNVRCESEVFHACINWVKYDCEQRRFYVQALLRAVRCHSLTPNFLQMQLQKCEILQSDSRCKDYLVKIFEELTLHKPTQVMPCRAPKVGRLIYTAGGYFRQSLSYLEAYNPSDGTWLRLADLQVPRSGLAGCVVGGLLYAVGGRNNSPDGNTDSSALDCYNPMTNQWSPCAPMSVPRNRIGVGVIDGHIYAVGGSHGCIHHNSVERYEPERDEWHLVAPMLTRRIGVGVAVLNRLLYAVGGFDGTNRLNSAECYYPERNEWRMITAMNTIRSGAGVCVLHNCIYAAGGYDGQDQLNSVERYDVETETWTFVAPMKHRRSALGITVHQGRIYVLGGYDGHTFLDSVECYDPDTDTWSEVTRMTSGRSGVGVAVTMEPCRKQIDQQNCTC
row,effect of a mutation on the interaction,Variant
1,with no effect,C475L
2,decreasing interaction strength,C475S
3,with no effect,C482S
4,disrupting interaction strength,D476A;E478A
5,decreasing interaction strength,C475S;C484S
6,with no effect,C484S
7,with no effect,C475S;C482S
8,increasing interaction strength,C482S;C484S

# Variants of: B1
# Conditions: with keap1_human KEAP1, Q14145
# Remark: another data set of the same source
row,effect of a mutation on the interaction,Variant
1,decreasing interaction strength,D476A;E478A

# Variants of: B2
# Conditions: with keap1_mouse Keap1, Q9Z2X8
# Target sequence in this assay (Q9Z2X8 whole entry): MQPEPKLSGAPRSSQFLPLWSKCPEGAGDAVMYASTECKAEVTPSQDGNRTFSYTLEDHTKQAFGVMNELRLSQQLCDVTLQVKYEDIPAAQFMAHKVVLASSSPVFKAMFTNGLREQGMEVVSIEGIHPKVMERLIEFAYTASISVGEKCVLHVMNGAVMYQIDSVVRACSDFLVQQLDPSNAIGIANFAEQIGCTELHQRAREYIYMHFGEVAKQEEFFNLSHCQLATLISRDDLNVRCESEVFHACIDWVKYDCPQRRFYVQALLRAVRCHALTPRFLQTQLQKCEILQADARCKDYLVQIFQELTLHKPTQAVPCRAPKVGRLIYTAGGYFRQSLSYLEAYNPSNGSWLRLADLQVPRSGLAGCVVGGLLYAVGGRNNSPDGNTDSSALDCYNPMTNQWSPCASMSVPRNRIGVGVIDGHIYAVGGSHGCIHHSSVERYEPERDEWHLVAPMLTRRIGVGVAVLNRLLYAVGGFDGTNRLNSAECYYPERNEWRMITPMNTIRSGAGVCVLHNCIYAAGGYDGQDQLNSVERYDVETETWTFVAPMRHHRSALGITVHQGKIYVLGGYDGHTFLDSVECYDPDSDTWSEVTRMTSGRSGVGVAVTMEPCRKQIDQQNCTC
row,effect of a mutation on the interaction,Variant
1,disrupting interaction strength,D77A;E79A

# Variants of: B3
# Conditions: with keap1_mouse Keap1, Q9Z2X8
# Target sequence in this assay (Q9Z2X8 whole entry): as above
row,effect of a mutation on the interaction,Variant
1,with no effect,D476A;E478A

# Source: IntAct's records for PubMed 31169361
